Test results reported in PMC9696751.
Ends that are not written are not given here.

Target: nano-HER2-E3 (UniProt P04637)
Assay: SEC; analytical chromatography on Superdex 200 Increase 5/150 GL; equimolar mixtures

formation of the complexes (percent): < 95%
Binder: C(Alexa‑647 maleimide)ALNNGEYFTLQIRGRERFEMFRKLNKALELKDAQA [647-C-K3]
